Laboratory results as given in publication PMC4749968, “Nanocaged enzymes with enhanced catalytic activity and increased stability against protease digestion” (Nature Communications, 2016).

Tests used:
[1] = test system: O=c1ccc2nc3ccc(O[C@@H]4O[C@H](CO)[C@H](O)[C@H](O)[C@H]4O)cc3oc-2c1; assay: purified protein; conditions: free enzyme; kcat not calibrated; conditions in supplement
MDH = test system: T1, MDH; conditions: read-out: Free enzymes / Km; free enzyme; 1x TBS with 1 mM MgCl2, pH 7.5 (most assays; details in supplement)
T1 construct: gene MDH2

LDH = test system: T2, LDH; conditions: read-out: Free enzymes / Km; free enzyme; 1x TBS with 1 mM MgCl2, pH 7.5 (most assays; details in supplement)
T2 construct: gene LDHA

[2] = substrate: CCn1c(=NN=c2sc3cc(S(=O)(=O)O)ccc3n2CC)sc2cc(S(=O)(=O)O)ccc21; assay: Michaelis-Menten kinetics, plate reader absorbance; assay type: biochemical, Armoracia rusticana; conditions: free enzyme, 1x TBS with 1 mM MgCl2, pH 7.5 (most assays; details in supplement)
Source text: Michaelis-Menten kinetics, plate reader absorbance on HRP

β-Gal (Escherichia coli K-12)
Km [1]: 58.7 ± 16.0 µM | kcat [1]: 8.5 ± 0.6 s⁻¹

NC(=O)C1=CN([C@@H]2O[C@H](COP(=O)(O)OP(=O)(O)OC[C@H]3O[C@@H](n4cnc5c(N)ncnc54)[C@H](O)[C@@H]3O)[C@@H](O)[C@H]2O)C=CC1 [NADH]
Km (MDH): 180 ± 50 µM | Km (LDH): 7.2 ± 1.3 µM

B1: HRP (Armoracia rusticana) (protein)
chain: QLTPTFYDNSCPNVSNIVRDTIVNELRSDPRIAASILRLHFHDCFVNGCDASILLDNTTSFRTEKDAFGNANSARGFPVIDRMKAAVESACPRTVSCADLLTIAAQQSVTLAGGPSWRVPLGRRDSLQAFLDLANANLPAPFFTLPQLKDSFRNVGLNRSSDLVALSGGHTFGKNQCRFIMDRLYNFSNTGLPDPTLNTTYLQTLRGLCPLNGNLSALVDFDLRTPTIFDNKYYVNLEEQKGLIQSDQELFSSPNATDTIPLVRSFANSTQTFFNAFVEAMDRMGNITPLTGTQGQIRLNCRVVNSNS
notes: 44 kDa
Km [2]: 2,600±400 μM | kcat [2]: 59 ± 5 s⁻¹
